Values joined by “and” are separate entries in the source; they are usually repeats but may differ in a detail not shown here. Equal entries are not always repeated.
Legend:
[1] = molecular target: T1, IGF-1R(1340-1366)[1346-pTyr]amid (phosphotyrosine at 1346; C-terminal amide); assay: SPR (BIAcore 3000), complex on SA sensor, peptide in solution
T1 construct: also called pIGF-1R peptide (free in solution); phosphorylated IGF-1R peptide
T1 peptide: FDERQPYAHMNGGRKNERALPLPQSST
Method: (§1) A BIAcore 3000 instrument (GE Healthcare) was used with a BIAcore SA sensor mounted into the system at T=25° C. The system was preconditioned at 100 μl/min with 3×1 min injection of 1 M NaCl in 50 mM NaOH and 1 min 10 mM HCl.
(§2) 124 RU amino-PEO-biotin were captured on the reference flow cell 1. […] As a control, buffer was injected instead of the ss-Fabs.
(§3) The dissociation was monitored at 50 μl/min for 5.3 min. The system was regenerated after each concentration step with a 12 sec pulse of 250 mM NaOH and was reloaded with ss-FAB ligand.

[2] = molecular target: T2, IGF-1R(1340-1366)amid (C-terminal amide); assay: SPR (BIAcore 3000, SA sensor, 25 C): ss-FABs hybridized on the biotinylated T40-Bi 77-mer ss-DNA linker on the surface; peptide as analyte in solution
T2 construct: also called IGF-1R peptide (free in solution); non-phosphorylated IGF-1R peptide
T2 peptide: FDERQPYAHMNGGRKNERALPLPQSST
Method: as §1, §2, §3

[3] = molecular target: T1, IGF-1R(1340-1366)[1346-pTyr]amid; assay: as above
Method: as §1, §2, §3

[4] = molecular target: T2, IGF-1R(1340-1366)amid; assay: SPR (BIAcore 3000, SA sensor, 25 C): ss-FABs hybridized on the biotinylated T0-Bi 37-mer ss-DNA linker on the surface; peptide as analyte in solution
Method: as §1, §2, §3

[5] = molecular target: T1, IGF-1R(1340-1366)[1346-pTyr]amid; assay: as above
Method: as §1, §2, §3

[6] = molecular target: T2, IGF-1R(1340-1366)amid; assay: SPR (BIAcore 3000, SA sensor, 25 C): single ss-FAB hybridized on the biotinylated T0-Bi 37-mer ss-DNA linker on the surface; peptide as analyte in solution
Method: as §1, §2, §3

[7] = molecular target: T1, IGF-1R(1340-1366)[1346-pTyr]amid; assay: as above
Method: as §1, §2, §3

[8] = molecular target: T3, IGF-1R(1340-1366); Glu(Bi-PEG-1340]amid (not fully specified; PEG linker with biotin on the glutamic acid at position 1340; C-terminal amide); assay: SPR (BIAcore 2000), biotinylated peptide on SA sensor, 100 nM analyte
T3 construct: also called IGF-1R peptide (biotinylated, non-phosphorylated)
T3 peptide: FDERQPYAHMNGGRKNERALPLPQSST

[9] = molecular target: T4, IGF-1R(1340-1366)[1346-pTyr; Glu(Bi-PEG-1340]amid (not fully specified; phosphotyrosine at 1346; PEG linker with biotin on the glutamic acid at position 1340; C-terminal amide); assay: as above
T4 construct: also called pIGF-1R peptide (biotinylated); phosphorylated IGF-1R peptide
T4 peptide: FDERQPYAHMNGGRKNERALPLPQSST

[10] = molecular target: T2, IGF-1R(1340-1366)amid; assay: SPR (BIAcore 3000, SA sensor, 25 C): single ss-FAB hybridized on the biotinylated T40-Bi 77-mer ss-DNA linker on the surface; peptide as analyte in solution
Method: as §1, §2, §3

[11] = molecular target: T1, IGF-1R(1340-1366)[1346-pTyr]amid; assay: as above
Method: as §1, §2, §3

[12] = molecular target: T5, INR(1355-1382)[1361-pTyr]amid (human, phosphotyrosine at 1361; C-terminal amide); assay: as above
T5 construct: also called pINR peptide; phosphorylated insulin receptor peptide (free in solution)
T5 peptide: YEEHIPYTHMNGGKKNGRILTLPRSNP
Method: as §1, §2, §3

[13] = molecular target: T6, hInsR(1355-1382)[1361-pTyr; Glu(Bi-PEG-1355]amid (human, not fully specified; phosphotyrosine at 1361; PEG linker with biotin on the glutamic acid at position 1355; C-terminal amide); assay: SPR (BIAcore 2000), biotinylated peptide on SA sensor
T6 construct: also called pIR peptide; IR (phosphorylated insulin receptor) peptide (biotinylated)
T6 peptide: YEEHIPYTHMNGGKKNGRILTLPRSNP

[14] = molecular target: T7, streptavidin (SA) (UniProt P22629 37-163, limits assumed); assay: SPR (BIAcore 3000), streptavidin injected over 2C4-FAB'-ss-L-DNA bound to captured huFc chimera HER2 ECD
T7 construct: Injected at 250 nM as effector moiety to probe the biotin of the 75mer ss-L-DNA linker
T7 sequence (P22629 37-163 limits assumed): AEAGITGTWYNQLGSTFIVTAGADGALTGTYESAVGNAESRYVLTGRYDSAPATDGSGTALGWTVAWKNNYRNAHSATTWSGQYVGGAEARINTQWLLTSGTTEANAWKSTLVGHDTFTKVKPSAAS
Description: The BIAcore assay setup comprised the following (see also FIG. 6): A polyclonal goat anti human IgG-Fc gamma antibody was immobilized on the BIAcore CM5 sensor and serves as a capture system for the huFc chimera HER2 ECD.
The FAB fragments have a calculated molecular weight of 57 kDa, each. […] Streptavidin is the effector moiety.

B1: T40 dual binding agent: ss-FAB 8.1.2 and ss-FAB 1.4.168 on the biotinylated T40-Bi 77-mer ss-DNA linker (linker 10) (bispecific antibody, V domains shown)
VH 1: EVQLQQSGPALVKPGASVKMSCKASGFTFTSYVIHWVKQKPGQGLEWIGYLNPYNDNTKYNEKFKGKATLTSDRSSSTVYMEFSSLTSEDSAVYFCARRGIYAYDHYFDYWGQGTSLTVSS
VL 1: QIVLTQSPAIMSASPGEKVTLTCSASSSVNYMYWYQQKPGSSPRLLIYDTSNLASGVPVRFSGSGSVTSYSLTISRMEAEDAATYYCQQWSTYPLTFGAGTKLELK
VH 2: QCDVKLVESGGGLVKPGGSLKLSCAASGFTFSDYPMSWVRQTPEKRLEWVATITTGGTYTYYPDSIKGRFTISRDNAKNTLYLQMGSLQSEDAAMYYCTRVKTDLWWGLAYWGQGTLVTVSA
VL 2: QLVLTQSSSASFSLGASAKLTCTLSSQHSTYTIEWYQQQPLKPPKYVMELKKDGSHTTGDGIPDRFSGSSSGADRYLSISNIQPEDESIYICGVGDTIKEQFVYVFGGGTKVTVLG
modifications: FAB′ hinge cysteine linked to ss-DNA
notes: Assembled on the SA sensor surface; also called T40-bi complex
Question: How did the Kd [1] turn out when B1 was run?
Answer: Its Kd is 0.01 nM.

Question: What about the Kd [2] of the same binder?
Answer: Its Kd is 0.973 nM and 1 nM.

Question: What about the t1/2 diss [2] of the same binder?
Answer: Its t1/2 diss is 4.3 min.

Question: What about the Kd [3] of the same binder?
Answer: Its Kd is 0.0125 nM.

B2: T0 dual binding agent: ss-FAB 8.1.2 and ss-FAB 1.4.168 on the biotinylated T0-Bi 37-mer ss-DNA linker (linker 17) (bispecific antibody, V domains shown)
VH 1: B1 VH 1
VL 1: B1 VL 1
VH 2: B1 VH 2
VL 2: B1 VL 2
modifications: FAB′ hinge cysteine linked to ss-DNA
Question: How did the Kd [1] turn out when B2 was run?
Answer: The Kd was 0.03 nM.

Question: And the Kd [4]?
Answer: Its Kd is 1.2 nM and 1 nM.

Question: What about the t1/2 diss [4] of the same binder?
Answer: Its t1/2 diss is 5 min.

Question: And the Kd [5]?
Answer: The Kd was 0.0344 nM.

B3: ss-FAB′ 1.4.168 (Fab, V domains shown)
VH: DVKLVESGGGLVKPGGSLKLSCAASGFTFSDYPMSWVRQTPEKRLEWVATITTGGTYTYYPDSIKGRFTISRDNAKNTLYLQMGSLQSEDAAMYYCTRVKTDLWWGLAYWGQGTLVTVSA
VL: B1 VL 2
modifications: cysteine of the FAB′ hinge region linked to 17mer ss-DNA comprising SEQ ID NO: 05 with fluorescein
notes: FAB′ from pepsin cleavage of murine mAb 1.4.168; also called ss-FAB 1.004.168; fluorescein-ss-FAB′ 1.4.168
Question: Which Kd [6] does the source give for B3 here?
Answer: The Kd was 1.35 nM and 1 nM.

Question: What about the koff [6] of the same binder?
Answer: The koff was 0.00326 s⁻¹.

Question: And the kon [6]?
Answer: The kon was 2.41e+06 M⁻¹ s⁻¹.

Question: And the t1/2 diss [6]?
Answer: Its t1/2 diss is 4 min.

Question: What about the Kd [7] of the same binder?
Answer: Its Kd is 2.59 nM and 3 nM.

Question: What about the koff [7] of the same binder?
Answer: The koff was 0.00291 s⁻¹.

Question: What about the kon [7] of the same binder?
Answer: Its kon is 1.12e+06 M⁻¹ s⁻¹.

Question: And the t1/2 diss [7]?
Answer: The t1/2 diss was 4 min.

Question: What about the T1/2 dis [8] of the same binder?
Answer: The T1/2 dis was 3 min.

Question: What about the T1/2 dis [9] of the same binder?
Answer: Its T1/2 dis is 3 min.

Question: What about the Kd [10] of the same binder?
Answer: Its Kd is 1.1 nM and 1 nM.

Question: What about the koff [10] of the same binder?
Answer: Its koff is 0.00362 s⁻¹.

Question: And the kon [10]?
Answer: Its kon is 3.3e+06 M⁻¹ s⁻¹.

Question: And the t1/2 diss [10]?
Answer: The t1/2 diss was 3 min.

Question: What about the Kd [11] of the same binder?
Answer: The Kd was 2.14 nM and 2 nM.

Question: And the koff [11]?
Answer: Its koff is 0.00419 s⁻¹.

Question: And the kon [11]?
Answer: The kon was 1.96e+06 M⁻¹ s⁻¹.

Question: Does B3 bind [12]?
Answer: Result: no binding (tested: 300 nM (highest peptide step))

Question: Does B3 bind [13]?
Answer: Result: no binding (tested: 100 nM)

B4: anti-HER2 antibody 2C4-FAB′-ss-L-DNA (Fab, V domains shown)
VH: EVQLVESGGGLVQPGGSLRLSCAASGFTFTDYTMDWVRQAPGKGLEWVADVNPNSGGSIYNQRFKGRFTLSVDRSKNTLYLQMNSLRAEDTAVYYCARNLGPSFYFDYWGQGTLVTVSS
VL: DIQMTQSPSSLSASVGDRVTITCKASQDVSIGVAWYQQKPGKAPKLLIYSASYRYTGVPSRFSGSGSGTDFTLTISSLQPEDFATYYCQQYYIYPYTFGQGTKVEIKQ
modifications: cysteine of the FAB′ hinge region linked via maleimide to fluorescein-labeled ss-L-DNA oligonucleotide
notes: FAB′ of 2C4 (Pertuzumab); also called 2C4-ss-L-DNA; 2C4-75mer
Question: Does B4 bind [14]?
Answer: Result: no binding (tested: 250 nM)

Source: patent US20200207874A1 (Hoffmann-La Roche, published 2020)
